The values below come from patent publication US20190361034A1.

Experiment [1] has as its target MHC class II molecules on MHC class II-expressing Raji cells (human). Kind of experiment: transfer cell ELISA, Raji cells; 250 ng/ml; plate row D. Background: ELISA stands for enzyme-linked immunosorbent assay.
For experiment [2] the target is unchanged. Briefly: direct ELISA, plate-immobilised Raji cells; 5% BSA, 2,500 cells; 125 ng/ml.
Experiment [3] shares this target. Briefly: direct ELISA, plate-immobilised Raji cells; 5% BSA, 2,500 cells; 62.5 ng/ml.
Experiment [4] shares this target. Briefly: direct ELISA, plate-immobilised Raji cells; 5% BSA, 5,000 cells; 125 ng/ml.
For experiment [5] the target is unchanged. Briefly: transfer cell ELISA, Raji cells; 62.5 ng/ml; plate row C.
Experiment [6] shares this target. Briefly: direct ELISA, plate-immobilised Raji cells; 5% BSA, 2,500 cells; 1000 ng/ml.
Experiment [7] has the same target. Kind of experiment: transfer cell ELISA, Raji cells; 1.953 ng/ml; plate row C.
For experiment [8] the target is unchanged. Kind of experiment: transfer cell ELISA, Raji cells; 15.63 ng/ml; plate row D.
The target is the same in experiment [9]. Kind of experiment: direct ELISA, plate-immobilised Raji cells; 10% FBS, 10,000 cells; 125 ng/ml.
Experiment [10] has the same target. Kind of experiment: direct ELISA, plate-immobilised Raji cells; 10% FBS, 2,500 cells; 250 ng/ml.
Experiment [11] has the same target. Briefly: direct ELISA, plate-immobilised Raji cells; 5% BSA, 5,000 cells; 250 ng/ml.
Experiment [12] shares this target. Kind of experiment: direct ELISA, plate-immobilised Raji cells; 5% BSA, 2,500 cells; 15.625 ng/ml.
The target is the same in experiment [13]. Briefly: transfer cell ELISA, Raji cells; 31.25 ng/ml; plate row C.
Experiment [14] has the same target. Briefly: direct ELISA, plate-immobilised Raji cells; 10% FBS, 10,000 cells; 62.5 ng/ml.
The target is the same in experiment [15]. Kind of experiment: direct ELISA, plate-immobilised Raji cells; 5% BSA, 10,000 cells; 1000 ng/ml.
The target is the same in experiment [16]. Briefly: direct ELISA, plate-immobilised Raji cells; 10% FBS, 5,000 cells; 62.5 ng/ml.
The target is the same in experiment [17]. Briefly: direct ELISA, plate-immobilised Raji cells; 5% BSA, 10,000 cells; 62.5 ng/ml.
For experiment [18] the target is unchanged. Kind of experiment: direct ELISA, plate-immobilised Raji cells; 0.5% Casein, 2,500 cells; 62.5 ng/ml.
Experiment [19] shares this target. Kind of experiment: direct ELISA, plate-immobilised Raji cells; 3% gelatin, 10,000 cells; 15.625 ng/ml.
Experiment [20] shares this target. Briefly: direct ELISA, plate-immobilised Raji cells; 3% gelatin, 2,500 cells; 1000 ng/ml.
Experiment [21] has the same target. Kind of experiment: direct ELISA, plate-immobilised Raji cells; 0.5% Casein, 10,000 cells; 250 ng/ml.
Experiment [22] shares this target. Briefly: direct ELISA, plate-immobilised Raji cells; 0.5% Casein, 5,000 cells; 15.625 ng/ml.
The target is the same in experiment [23]. Kind of experiment: transfer cell ELISA, Raji cells; 250 ng/ml.
The target is the same in experiment [24]. Briefly: direct ELISA, plate-immobilised Raji cells; 0.5% Casein, 2,500 cells; 1000 ng/ml.
Experiment [25] shares this target. Kind of experiment: BLI; immobilised sample, Raji cells in solution; control of FIG. 18 (37° C., 1 day, no H2O2). In general terms: In BLI a coated tip is dipped into the sample, and binding shifts an interference pattern.
For experiment [26] the target is unchanged. Briefly: transfer cell ELISA, Raji cells; 0.977 ng/ml.
Experiment [27] shares this target. Kind of experiment: direct ELISA, plate-immobilised Raji cells; 3% gelatin, 5,000 cells; 250 ng/ml.
The target is the same in experiment [28]. Kind of experiment: direct ELISA, plate-immobilised Raji cells; 3% gelatin, 10,000 cells; 62.5 ng/ml.
The target is the same in experiment [29]. Kind of experiment: BLI; immobilised sample, Raji cells in solution; pH 7.0 control of FIG. 22.

Take “IMP321 treated with Peptide-N-Glycosidase F (PNGase F) (Fc fusion)”: the OD (ELISA signal) worked out at 0.361 OD in experiment [1]; 0.415 OD in [2]; 0.297 OD in experiment [3]; 0.476 OD in [4]; 0.082 OD in experiment [5]; 1.83 OD in experiment [6]. Besides, the OD (ELISA signal) in experiment [7] came out at 0.011 OD; in experiment [8], 0.029 OD; in experiment [9], 0.377 OD; in [10] it was 1.29 OD; in experiment [11], 1.09 OD; in [12], 0.281 OD. In addition, the OD (ELISA signal) is 0.042 OD in experiment [13]; 0.29 OD in experiment [14]; 1.77 OD in experiment [15]; 0.28 OD in experiment [16]; 0.283 OD in experiment [17].
For “IMP321, recombinant soluble human LAG-3Ig fusion protein (Fc fusion)”, the OD (ELISA signal) in experiment [18] was 0.135 OD; in [19] it was 0.361 OD; in experiment [20], 2.6 OD; in experiment [21], 0.241 OD; in experiment [22] it was 0.207 OD; in experiment [23], 0.956 OD. The OD (ELISA signal) was determined as 0.112 OD in experiment [24], 0.018 OD in [26], 2.1 OD in experiment [27] and 0.417 OD in experiment [28]. Also, the Bioactivity (binding) was 77% in experiment [25] and 94% in experiment [29].
